The record followed here is paper PMC6538746, “Rice transcription factor OsMADS57 regulates plant height by modulating gibberellin catabolism”.

This series concerns the target OsMADS57 (Oryza sativa, UniProt Q6Z6W2 1-241). The series is described as follows: EMSA; competed by unlabeled probe; LightShift Chemiluminescent EMSA Kit (Thermo); buffer, salt, pH and temperature not stated. The note with it: protein: recombinant; tags: His (pET32a(+) vector-encoded tags); chain copies: 2; label: biotin 3' end; blunt. (A gel shift assay detects complexes by their altered migration in electrophoresis.)

OsMADS57, sequence (Q6Z6W2 whole entry): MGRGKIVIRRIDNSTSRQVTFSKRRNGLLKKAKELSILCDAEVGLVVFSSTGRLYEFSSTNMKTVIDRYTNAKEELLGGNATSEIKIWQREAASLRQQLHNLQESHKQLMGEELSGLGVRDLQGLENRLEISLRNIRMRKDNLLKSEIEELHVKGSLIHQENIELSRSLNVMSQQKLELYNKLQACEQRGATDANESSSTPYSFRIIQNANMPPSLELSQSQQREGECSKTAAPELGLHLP

B1: EUI1 promoter CArG probe (dsDNA)
DNA 1: GCCTTTCCCTTTGTTACTGTTGCATATAAAAGATCATCAATGT
DNA 2: ACATTGATGATCTTTTATATGCAACAGTAACAAAGGGAAAGGC
On to B1, for which the binding result was “binds”.

B2: OsGA2ox3 promoter CArG probe (dsDNA)
DNA 1: TAGCACGAGGGAAAACCCTTTAAAAAGACAGACAAGGCAGACG
DNA 2: CGTCTGCCTTGTCTGTCTTTTTAAAGGGTTTTCCCTCGTGCTA
On to B2, for which the binding result is given as “binds”.
